Source: the DeepSol protein solubility set

Test: soluble on expression in E. coli; label from the status in PepcDB or PDB records

Soluble on expression in E. coli, not soluble:
MDKIASDKDLREPDAGLLLNIFDLYYDLASAPAQYAAKRAHILEAAKKASTWHIRHVAPKYKNYVVVIGESARSDYMNVYGFPLPDTPFLSQTKGLLINGYQSTAHATNLSLPQTLGLPGEPNNNIVSLAKQAGFRTAWLSNQGMLGHFANEISTYALRSDYPWFTQRGDYGKSAGLSDRLLLPAFKRVLIGNAGTKPRLIVMHLMGSHSDFCTRLDKDARRFQYQTEKISCYVSTIAQTDKFLEDTVKILNENKESWSLVYFSDHGLMHVGKGGERTLTHGAWKRQSYGVPLVKISSDDTRREMIKVRRSAFNFLRGFGSWTGIETDELPDDGYDFWGNVPDVQGEGNNLAFIDGLPDDPAPWYAGKGKSTKNTSKK
TKDFIWNLSFNGTHYSNKILNLPEDKRENGIIHGTASLFRLMEGGSIYDLYTYEYAGVNPETGAAQWYMDEKDANGKVTGRTVTEDYTQASKYELGSTLPDFQGGFSTDFAYKGIDLSIATNFQIGGKIYDSMYSSFMHAGSNIGSNWHKDILNAWTPENKNTNVPIMDGAQNSNSQSSRFLINASFFNIRNISLGYTFPKEWMKAISASSARIYVSADNVALFSKRKGMDPRQYAYGYSAANYSAIRTLSFGINLNF
MKRQKRDRLERAQSQGYKAGLNGRSSEHCPYQSMDARSCWLGGWRDARDDKQSGLFKLEHHHHHH
MPGTRFSGKVVLISGSSKGIGQATAVKFAAEGAKIVLNGRSADDVEKTRKLCMEVGAKPWDLLPTVGDITNEDFVKMMVNTVIHNFGKLDILINNAGTLEVDMTGKEGWEMGVDVMDRSWNSNFKSVLMLTQAAMPHLIKTKGDIVNVSTFLSSGPIGVMSMPYYAVPKAALDQMSRSMAHEYMLKGVRLNTVNPGLVSTSFFARLPGVGDDNARKMENYVQSKTEYIPLGRVCQASDVAETILFLADRKVSECIVGQSIIIDGGSRLCCNIDMSDFKEQMAKA
MSKPTLAVALIVKNEARHLDECLQTVHDWVDEIVVLDSGSHDETEQVARRYTEKFYVNAKWPGFGLQRQLAQSYVQSDYVLWLDADERVTPELKQSILQAVAANKPDTLYQFARLSWVFGRFIRHSGWYPDRVLRLYPTQLTRYNDALVHEKVHVEPSMKVETLAGDAIHYTYNDVHHYLVKSAGYAKAWADQRQAKGKKASLSQGIVHAVGCFLKMYLLKRGFLDGKQGFLIALLSAHSTFVKYADLWARDNDEHYKR
MRHREWSRATEGDRTMATTIATLTQKTDGILEGVFATIRVNAPIAIIPNASKSSEEAPDYRVIHRKTGFEIGAGWNRIARQTGEEYLSVKLEAPEIGVIFGNLAPAPGGDPSKKVILWNNPD
MVEIYLFVNPLGGVCLEIEKEIIQLSVNDKKKIQLRFIPLLNMKTINEFLSRQHIPINDIKRRNRIFEDLYSAALDYKAAQLQGRKKGRQLLIGLQKAVAEDGLAYSPELSEELLLAAGGDIDMYRKDRQSDFVKESFQTDQKVAREMGIKQHPTAVVYNYTCENDFGILVENFENMDEIKQLCRVHPHNEPLLNQGDATFEFKRRSNYHFPNGHLHLL
MGHHHHHHSHMRKNESYLNQPAPPIPIPTLSLMGGCREHFENHWKGRARWLMPVIPALWEAKAGRSPEVRSSKPAWPTWRNPIFTKNTKISQVLELFLNYQSLICALEKQKRQKGSLAIFCWSFQGGCVSKRPDVPSLKSQKPKRKRITGRKRLSKGFWSLLFSNLGRF
MSAFQGNMFVLVNVDQHRDLIGPIINQLVADYGTPVSIVDNIQKICPKCSCTPHANPDSSSVPTTTSSDEHQEEPPTPKTIAPAPIATPVLKPLLPQRESIVSNGIHPVVVKRKQSIAEEIDTPEIKKSRVVEPVKVKTETIILDDDDGNVLDTVLAALQNGNHEMQFTGSGGSSDDGASNSSNIYDVDDEDYGTSQWNPDFLTNFITSQPNIFSVTGQNIKSSPSKNAGQTPNGKRQVPPMLTVNGKTRRGRIVYSTQELNILEKYYEEDPNACADPRKRETMCKTLSIDYHRLKVWFQNRRRKDKVRSQEEAATTFNGLDYSEDS
MGSDKIHHHHHHMVSYKILSVANKLKNIRDKYGLSQEDLAGNEITRNLISQIEHNKANLTRSAAEIMLKNLKKICDKKNVQVDEDINYLMEDEKSQAIKVLDKYIDDLRDLTIYKDNVFINKLREVEDFLVTWDFRDKKITIFELAGDYFSSTNDFYNASLYYEKAKALIDINIYSDNIVHILRKLSMTYYYMLRYQDDINCCEFALKQFKNMDEEYRCIFLFNSSLCYGQLKKYDLALKRLNEVESIIKNIDQNKYYEVLIQKAICYQWMKEYQKSLDIYNKLLESIDKSDYEKYLFILVNSSDIYVENSNFEKAESNLRIILENINNLNESSTLLPSTYLEMSRILKKLGYTKDAELYCLKSLNYAKRNTHYYLVNDIYGELLDIYKTLNVPEKVQTIKDEFFSNSSRDKNLNSKLMFKLLDFYFATNDIHSIKEIYDFSKNFIQERMINLCY
MHPRFQTAFAQLADNLQSALAPILADHHFPAMLTAEQVSTLKNTAGLDEDALAFALLPLAAACARTDLSHFNVGAIARGVSGNWYFGANMEFLGATMQQTVHAEQSAISHAWLRGEKGLAAVTVNYTPCGHCRQFMNELNSGLDLRIHLPGRAPHTLRDYLPDAFGPKDLEIKTLLMDEQDHGFTLTGDTLTQAAITAANKSHMPYSHSPSGVALECKDGRIFTGSYAENAAFNPTLPPLQGALNLLSLNGYDYADIQRAILAEKGDAALIQWDATAATLKALGCHNIDRVLLG
MSLTQIQPGVEKFIKDFNDAKKKGEHAYDMTLSYQNFDKGFFNSRFQMQMTFDNGAPDLNIKPGQKVVFDVDVEHGPLPITMLMHGNVIPALAAAKVNLVNNELTQPLFIAAKNKSPVEATLRFAFGGSFSTTLDVAPAEYGKFSFGEGQFTFNGDGSSLSNLDIEGKVEDIVLQLSPMNKVTAKSFTIDSLARLEEKKFPVGESESKFNQINIINHGEDVAQIDAFVAKTRLDRVKDKDYINVNLTYELDKLTKGNQQLGSGEWSLIAESIDPSAVRQFIIQYNIAMQKQLAAHPELANDEVALQEVNAALFKEYLPLLQKSEPTIKQPVRWKNALGELNANLDISIADPAKSSSSTNKDIKSLNFDVKLPLNVVTETAKQLNLSEGMDAEKAQKQADKQISGMMTLGQMFQLITIDNNTASLQLRYTPGKVVFNGQEMSEEEFMSRAGRFVHEGHHHHHH

Soluble on expression in E. coli, soluble:
DETIHLERGENLFEIHINKVTFSSEVLQASGDKEPVTFCTYAFYDFELQTTPVVRGLHPEYNFTSQYLVHVNDLFLQYIQKNTITLEVHQAYSTEYETIAACQLKFHEILEKSGRIFCTASLIGTKGDIPNFGTVEYWFRLRV
MSDPRPVVARCEGMFPADLARYEAQRTRKGGDLGHIDASRSHLNRPLLGEADWAKQAMAEIEAMRAENYADELEALQRRGRKKEIQKRMVEGPKDPWRASRHGPLREIILTAHKDWFNEIVFDGNRMDFAARERAFEDRAVAWLQQTFGDDIVHARADLDETTYHIHAVLVPRAVVKVNGATRRMLQPSIHPLIEDYEKLQDSVGAWFSAIGLARGEKRAEAIREAAAKGDPIPKKRHHCRPSDWRRRQEAEVIRQRAEVEAREAATAETAAALDARRADLAHHEERLAAEDARLSAVAATRRAEAGRLDHRVEAVVARETVADERMAEADAVLAVAEGPGAGAFDIDDAGGTPMLTERPENPSLLARLKRPVAGSDRGRARAVAALGAAWTRLRKAAGEAAEARLAREHEDLRKADEALLEVARTLPETARERIARARPTIARSLTGIGLTLRRLRGRDGGAQRDESGTGEKLEHHHHHH
MSQVQEQHISESQLQYGNGSLMSTVPADLSQSVVDGNGNGSSEDIEATNGSGDGGGLQEQAEAQGEMEDEAYDEAALGSFVPIEKLQVNGITMADVKKLRESGLHTAEAVAYAPRKDLLEIKGISEAKADKLLNEAARLVPMGFVTAADFHMRRSELICLTTGSKNLDTLLGGGVETGSITELFGEFRTGKSQLCHTLAVTCQIPLDIGGGEGKCLYIDTEGTFRPVRLVSIAQRFGLDPDDALNNVAYARAYNADHQLRLLDAAAQMMSESRFSLIVVDSVMALYRTDFSGRGELSARQMHLAKFMRALQRLADQFGVAVVVTNQVVAQVDGGMAFNPDPKKPIGGNIMAYSSTTRLGFKKGKGCQRLCKVVDSPCLPEAECVFAIYEDGVGDPREEDE
EAVHRLDLILCNKTAYQEVFKPENISLRNKLRELCVKLMFLHPVDYGRKAEELLWRKVYYEVIQLIKTNKKHIHSRSTLECAYRTHLVAGIGFYQHLLLYIQSHYQLELQCCIDWTHVTDPLIGCKKPVSASGKEMDWAQMACHRCLVYLGDLSRYQNELAGVDTELLAERFYYQALSVAPQIGMPFNQLGTLAGSKYYNVEAMYCYLRCIQSEVSFEGAYGNLKRLYDKAAKMYHQLKKCETRKLSPGKKRCKDIKRLLVNFMYLQSLLQPKSSSVDSELTSLCQSVLEDFNLCLFYLPSSPNLSLASEDEEEYESGYAFLPDLLIFQMVIICLMCVHSLERAGSKQYSAAIAFTLALFSHLVNHVNIRLQAELEEGENPVPAFQSDGTDEPESKEPVEKEEEPDPEPPPVTPQVGEGRKSRKFSRLSCLRRRRHPPKVGDDSDLSEGFESDSSHDSARASEGSDSGSDKSLEGGGTAFDAETDSEMNSQESRSDLEDMEEEEGTRSPTLEPPRGRSEAPDSLNGPLGPSEASIASNLQAMSTQMFQTKRCFRLAPTFSNLLLQPTTNPHTSASHRPCVNGDVDKPSEPASEEGSESEGSESSGRSCRNERSIQEKLQVLMAEGLLPAVKVFLDWLRTNPDLIIVCAQSSQSLWNRLSVLLNLLPAAGELQESGLALCPEVQDLLEGCELPDLPSSLLLPEDMALRNLPPLRAAHRRFNFDTDRPLLSTLEESVVRICCIRSFGHFIARLQGSILQFNPEVGIFVSIAQSEQESLLQQAQAQFRMAQEEARRNRLMRDMAQLRLQLEVSQLEGSLQQPKAQSAMSPYLVPDTQALCHHLPVIRQLATSGRFIVIIPRTVIDGLDLLKKEHPGARDGIRYLEAEFKKGNRYIRCQKEVGKSFERHKLKRQDADAWTLYKILDSCKQLTLAQGAGEEDPSGMVTIITGLPLDNPSVLSGPMQAALQAAAHASVDIKNVLDFYKQWKEIG
MRKEGYKSGFVAIIGRPNVGKSTFLNRVIGQKIAIMSDKPQTTRNKIQGVYTDDDAQIIFIDTPGVHKPKHKLGDFMMKVALNALREVDLILFMVNAEEGFGRGEAFIIERLKEVDTPVFLVINKIDRVHPDELLPLIDRYKDLYPFAEIVPISALEGNNVDRLLEQIKERLPEGPQYYPPDQITDHPEQFIIAELIREKALHLTREEVPHSIAVVVERIERREGSPTVYISAVIVVERDSQKGIIIGKQGRMLKEIGQRARADIEALLGSRVFLELWVKVQKDWRNRLSQLRDFGFREDEY
MMVRVMRYKKVPVKKIVNKIIDECDVILLVLDARDPEMTRNRELEKKIKAKGKKLIYVLNKADLVPKDILEKWKEVFGENTVFVSAKRRLGTKILREMIKQSLKEMGKKEGKVGIVGYPNVGKSSIINALTGKRKALTGSVAGLTKGEQWVRLTKNIKLMDTPGVLEMRDEDDLVISGALRLEKVENPIPPALKILSRINNFDNSIIKEYFGVDYEEVDEELLKKIGNKRSYLTKGGEVDLVRTAKTIIKEYQDGKLNYYKVDLKKYGQDRERDISFITKYLKDFPFIEDAKMIVTHLKDFDGLYKKIKKPVLGSEEIDGNIVVVSFGEKTKDACRKKVENLCRERNIEVLSKFGDKIGANNIYVAVGKRVKE
SNAKKVCVDTCVVIDGRITELIERGKLKDATIIIPEAVVSELEYQANMGREIGYKGIEELRKLIEKASEHNIKVEYYGERPTREEIFLAKSGEIDAMIRKVAKETNSILLTSDWIQYNLAKAQGIEAYFLEAAEEEVELVLD
